Assay results taken from patent JP2012050437A (dated 2012).
Positions count from the first letter of the chain named.

B1: murine monoclonal antibody 12A11 (isotype IgG1) (antibody, V domains shown)
VH: QVTLKESGPGILKPSQTLSLTCSFSGFSLSTSGMSVGWIRQPSGKGLEWLAHIWWDDDKYYNPSLKSRLTISKDTSRNQVFLKITSVDTADTATYYCARRTTTADYFAYWGQGTTLTVSS
VL: DVLMTQTPLSLPVSLGDQASISCRSSQSIVHSNGNTYLEWYLQKPGQSPKLLIYKVSNRFSGVPDRFSGSGSGTDFTLKISRVEAEDLGIYYCFQSSHVPLTFGAGTKLELK
notes: Mouse IgG1 from the hybridoma; also called mAb 12A11; m12A11
B2: humanized 12A11 antibody, version 6.1 (antibody, V domains shown)
VH: QVQLVESGGGVVQPGRSLRLSCAFSGFTLSTSGMSVGWIRQAPGKGLEWVAHIWWDDDKYYNPSLKSRFTISKDTSKNTVYLQMNSLRAEDTAVYYCARRTTTADYFAYWGQGTTVTVSS
VL: DVVMTQSPLSLPVTPGEPASISCRSSQSIVHSNGNTYLEWYLQKPGQSPQLLIYKVSNRFSGVPDRFSGSGSGTDFTLKISRVEAEDVGVYYCFQSSHVPLTFGQGTKLEIK
notes: Variable regions only; also called h12A11v6.1; バージョン6.1
B3: humanized 12A11 antibody, version 5.3 (antibody, V domains shown)
VH: B2 VH with V50L, F69L, V80L
VL: B2 VL
notes: Variable regions only; also called h12A11v5.3; バージョン5.3
B4: humanized 12A11 antibody, version 5.1 (antibody, V domains shown)
VH: B2 VH with F69L
VL: B2 VL
notes: Variable regions only; also called h12A11v5.1; バージョン5.1
B5: humanized 12A11 antibody, version 2.1 (antibody, V domains shown)
VH: B2 VH with T75N, V80L
VL: B2 VL
notes: Variable regions only; tested in conditioned medium of COS cells; also called h12A11v2.1; v2.1
B6: humanized 12A11 antibody, version 5.4 (antibody, V domains shown)
VH: B2 VH with T28S
VL: B2 VL
notes: Variable regions only; also called h12A11v5.4; バージョン5.4
B7: humanized 12A11 antibody, version 6.3 (antibody, V domains shown)
VH: B2 VH with V50L, V80L
VL: B2 VL
notes: Variable regions only; also called h12A11v6.3; バージョン6.3
B8: humanized 12A11 antibody, version 5.5 (antibody, V domains shown)
VH: B2 VH with T28S, F69L, V80L
VL: B2 VL
notes: Variable regions only; also called h12A11v5.5; バージョン5.5
B9: humanized 12A11 antibody, version 6.2 (antibody, V domains shown)
VH: B2 VH with F69L, V80L
VL: B2 VL
notes: Variable regions only; also called h12A11v6.2; バージョン6.2
B10: humanized 12A11 antibody, version 3 (antibody, V domains shown)
VH: B2 VH with K73R, T75N, V80L
VL: B2 VL
notes: Variable regions only; tested in conditioned medium of COS cells; also called h12A11v3; v3
B11: humanized 12A11 antibody, version 5.2 (antibody, V domains shown)
VH: B2 VH with V50L
VL: B2 VL
notes: Variable regions only; also called h12A11v5.2; バージョン5.2
B12: humanized 12A11 antibody, version 6.4 (antibody, V domains shown)
VH: B2 VH with T28S, V80L
VL: B2 VL
notes: Variable regions only; also called h12A11v6.4; バージョン6.4
B13: humanized 12A11 antibody, version 5.6 (antibody, V domains shown)
VH: B2 VH with T28S, V50L, V80L
VL: B2 VL
notes: Variable regions only; also called h12A11v5.6; バージョン5.6
B14: recombinant mouse 12A11 Cγ2a (isotype-switched 12A11) (antibody, V domains shown)
VH: B1 VH
VL: B1 VL
modifications: biotin conjugated (in the ELISA and the competition assay)
notes: also called m12A11Cγ2a; biotin-conjugated m12A11Cγ2a

Molecular target: T1, aggregated synthetic Aβ1-42 (human, UniProt P05067 672-713)
T1 construct: domain: Aβ1-42; Synthetic peptide, aggregated, coated for ELISA; also called 凝集Aβ1−42; Aβ(1-42) aggregate
Experiment: ELISA on aggregated synthetic Aβ1-42

Row | binding result | Binder
1 | binds | B1

Molecular target: T1, aggregated synthetic Aβ1-42
Experiment: quantitative Aβ(1-42) aggregate binding assay, COS conditioned medium

Row | binding result | Binder
2 | binds | B2
3 | binds | B3
4 | binds | B4
5 | binds | B5
6 | binds | B6
7 | binds | B7
8 | binds | B8
9 | binds | B9
10 | binds | B10
11 | binds | B11
12 | binds | B12
13 | binds | B13

Molecular target: T1, aggregated synthetic Aβ1-42
Experiment: ELISA on aggregated Aβ1-42, streptavidin-HRP as reporter; confirmed (sentence runs on into paragraph 399)

Row | binding result | Binder
14 | binds | B14
